The values that follow come from patent publication US20090221680.

The target in this series is thrombin (alpha-thrombin) (Homo sapiens) (UniProt P00734+P00734). In words: filter.

Broadly, the Kd is the equilibrium constant for the complex coming apart.

Consider “ACTGCCTAGGTTGGGTAGGGTGGTGGCAGT [ARC2684]”, for which the dissociation constant Kd (deoxyinosine at 25 [25]) came out at 0.188 nM. Turning to “ACTGCCTAGGTTGGGTAGGGTGGTGGCAGT [ARC2679]”, the Kd (deoxyinosine at 18 [18]) amounted to 0.355 nM. Under “2'-OMe inosine at 4, rest DNA [4]”, “ACTGCCTAGGTTGGGTAGGGTGGTGGCAGT [ARC2687]” displayed a dissociation constant Kd of 0.22 nM. Sequence “ACTGCCTAGGTTGGGTAGGGTGGTGGCAGT [ARC2680]” gave an equilibrium dissociation constant (Kd) (deoxyinosine at 19 [19]) of 0.24 nM. Under “deoxyinosine at 10 [10]”, “ACTGCCTAGGTTGGGTAGGGTGGTGGCAGT [ARC2675]” displayed a Kd of 2.03 nM.

In the case of “ACTGCCTAGGTTGGGTAGGGTGGTGGCAGT [ARC2691]”, the Kd (2'-OMe inosine at 14, rest DNA [14]) turned out to be 2.28 nM. Consider “ACTGCCTAGGTTGGGTAGGGTGGTGGCAGT [ARC2698]”, for which the equilibrium dissociation constant (Kd) (2'-OMe inosine at 25, rest DNA [25 = 2'-OMe inosine (written as parent base G), rest DNA]) stood at 0.165 nM. “ACTGCCTAGGTTGGGTAGGGTGGTGGCAGT [ARC2700]”: for the setting “2'-OMe inosine at 29, rest DNA [29 = 2'-OMe inosine (written as parent base G), rest DNA]”, the Kd was determined as 0.046 nM.

Under “2'-OMe inosine at 20, rest DNA [20]”, “ACTGCCTAGGTTGGGTAGGGTGGTGGCAGT [ARC2695]” registered a Kd of 2.08 nM.

Under “2'-OMe inosine at 15, rest DNA [15]”, “ACTGCCTAGGTTGGGTAGGGTGGTGGCAGT [ARC2692]” returned a Kd of 1.84 nM. As to “ACTGCCTAGGTTGGGTAGGGTGGTGGCAGT [ARC2673]”, the Kd (deoxyinosine at 4 [deoxyinosine at 4 (parent base G)]) turned out to be 0.207 nM. As for “ACTGCCTAGGTTGGGTAGGGTGGTGGCAGT [ARC2676]”, for the setting “deoxyinosine at 13 [13]”, the equilibrium dissociation constant (Kd) was determined as 0.698 nM. “ACTGCCTAGGTTGGGTAGGGTGGTGGCAGT [ARC2686]” registered a Kd (deoxyinosine at 29 [29]) of 0.189 nM. For the sequence “ACTGCCTAGGTTGGGTAGGGTGGTGGCAGT [ARC2699]”, for the setting “2'-OMe inosine at 26, rest DNA [26 = 2'-OMe inosine (written as parent base G), rest DNA]”, the equilibrium dissociation constant (Kd) was found to be 0.128 nM. “ACTGCCTAGGTTGGGTAGGGTGGTGGCAGT [ARC2685]” gave a Kd (deoxyinosine at 26 [26]) of 0.226 nM. Sequence “ACTGCCTAGGTTGGGTAGGGTGGTGGCAGT [ARC2674]” yielded a Kd (deoxyinosine at 9 [9]) of 0.452 nM. Turning to “ACTGCCTAGGTTGGGTAGGGTGGTGGCAGT [ARC2678]”, the Kd (deoxyinosine at 15 [15]) was 1.43 nM.

For the setting “deoxyinosine at 20 [20]”, “ACTGCCTAGGTTGGGTAGGGTGGTGGCAGT [ARC2681]” yielded a Kd of 0.334 nM. Where the note is “deoxyinosine at 14 [14]”, “ACTGCCTAGGTTGGGTAGGGTGGTGGCAGT [ARC2677]” showed an equilibrium dissociation constant (Kd) of 0.199 nM. On to “ACTGCCTAGGTTGGGTAGGGTGGTGGCAGT [ARC2682]”, for which the Kd (deoxyinosine at 22 [22]) came out at 1.3 nM. Take “ACTGCCTAGGTTGGGTAGGGTGGTGGCAGT [ARC2697]”: under “2'-OMe inosine at 23, rest DNA [23]”, the equilibrium dissociation constant (Kd) turned out to be 1.56 nM. With “ACTGCCTAGGTTGGGTAGGGTGGTGGCAGT [ARC2683]”, the dissociation constant Kd (deoxyinosine at 23 [23]) came out at 0.151 nM.
